The data set is described as follows: soluble fraction after stress (log2 fold change); higher = more stays soluble; pooled small domains, quantitative proteomics. The conditions noted are these: stress: pH 4. The method in brief: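 Pooled custom libraries of small protein domains were subjected to pH 4 and measured by high-throughput quantitative proteomics. The log2 fold change in soluble amount per domain is reported, higher values meaning more remained soluble. This is used as a measure of aggregation propensity.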
On to “HMDFQTDVFISRFAELKKESGETNKDLQDVFELSLSALINYQTGKRIPDIAFLHKLAQHFGVSADYLLGLS”, for which the “soluble fraction (log2)” value is -0.6.
Consider “HMDFRQALNTSADSDANKVALLESIVKGKYVSSTVNLLRRVITLRRGRSIDATLAAYSHYVSIR”, for which the “soluble fraction (log2)” value was determined as 0.385.
Then “HMDFSVTIKGTSFPVMVSLKKMKQVRLKVFPSGEIKLSAPVGTPEKWIVEYLNDKMSWIEEKMDLFVQ”, with -0.395.
Then “HMDFTMSEIQTAMAALPRGYRTVVQLYLVDGYSHKEIAEMLGVDVNTSKSQLSRGRKQLQAFLAAMS”, with -0.602; and “HMDFYIVLGVDRAASVSDVKRAYRRLARKYHPDINPGDREAEAFFLRVTEAYETLIDPDRRQDYDVNG”, with -1.31; and “HMDFYPARVKWFNKSKGFGFANIFKSNDDIFLHIETLKRSGLSDLETGEAIVLTVTEGPRGKMADTILTWD”, with -0.411.
As for “HMDGDFGMNLDWQPSEHFPTLARQAGIPADHITAEAIAEFRSYWIGQGKAMTQYQWDHKLLTNLKATKTR”, the “soluble fraction (log2)” value was 0.106.
For the sequence “HMDGEAQTYVEYGKWFPADLPLEAVRQLADGVPVTKELVAALNPRRSEWEEIKAGLDKIGYPNELL”, the “soluble fraction (log2)” value was -0.567.
With “HMDGEITLYKVVGYIKASDFDDKKNGFVIADDYITKRQAEDTMYEWKRKKTYPYLEIKEYKGKDPYK”, the “soluble fraction (log2)” value is -0.0464.
Consider “HMDGLAEQLFNILREELESGDYKPGQKLMSESALAQKYGVSRLTVRAAIARLSALDYVETRNGEGSFVKKR”, for which the “soluble fraction (log2)” value is -0.0881.
Then “HMDGLDFIINENGKIANINEEGELLAKGENIMLGYYKDSISTNNTINNGWLHTGDIAKIDNDGFIYL”, with -0.123; and “HMDGMNEELYQKFFALVGNPDEGKRISQAKAAQALGYSSAVVSAYKNRTYNGNIKAFEDAVQAWLKREERR”, with 0.141; and “HMDGPELYESMKAIVPDQLDRTIFLTGGAYTPRAQEFLARVPNQQMEKPFEFEALRSLLARLT”, with -0.199.
As for “HMDGTEVTTEPPGAQVEYEGKQFGPTPARIPGLVAGKSLHITLPGYLEVKPKIKAVPKDGEPLSFTLTAI”, the “soluble fraction (log2)” value was 0.224.
For the sequence “HMDGVEVVTKPAGAQIEFAGKSYGPSPVHIPGLVAGSQLILRLPGFQAATVRLRTAPDKSKALEYTLQPA”, the “soluble fraction (log2)” value is -0.0155.
Then “HMDGVLVYKEGMTVADMATGLGKTIAQVVMKLMQLGIMANQNQSVDRETVELVALDFGYELKD”, with -1.39.
On to “HMDGVSAEAVKSHIKTLIDGEGAKILSDDTLVDLLNAKGFDIARRTVAKYREAMGIGSSVQRRRQKKMG”, for which the “soluble fraction (log2)” value was -0.0273.
Turning to “HMDGYLQLASKKNELITQLKTPPKPKRLFKDFEDRVYLITEYKVFVVSIFQNEFRLRPVNKDDFYRYTT”, the “soluble fraction (log2)” value is -0.134.
Consider “HMDGYTAVDKAVSDQYYTKENQLYFVSMGNFFSLGAKKIEGADISSFQILTTEYARDLQHLYFNGKV”, for which the “soluble fraction (log2)” value was -0.367.
Consider “HMDHFFSKYDSIVNHTVQKKETLFGISKKYGLTINEVIKFNPGIQIDKLKRRSVLIIPLMKKN”, for which the “soluble fraction (log2)” value was -0.0453.
As for “HMDHKSALQELLAPRGLQPSYRLVEEAGPAHARVFTSEVSVDGVARGSGTGTTIKMSEQAAAREALASLG”, the “soluble fraction (log2)” value stood at 0.318.
Under “HMDHKSQLQEWAQSTLGETPRYVTIAETGPDHDKELTVELIIGRKSYSIAKGKSKKQAEQSAARIALGLLM” stands -0.504; under “HMDHKSSYWSVKEANLFPELLKQFGSQWSLISDKLGTKSTTMVRNYYQRNAAQLGWKSVVEEADFKRNA”, 0.0284; under “HMDHTYKHIELTGSSEKGIEEAVQNALAKASESVQNMRWLEVTDTRGHIEDGRVAHWQVTVKVGFTL”, 0.22.
As to “HMDHVEDRMVLEVVLKKLTEEERRIVMLHAVSGLKHREIAKALDIPLSTVLSKYKRTLKKLEAYLMEME”, the “soluble fraction (log2)” value is -0.936.
As to “HMDIADKLTKREFEIFIAIAMNKSRFDIANELGLSAKTVSNGLTVIKRKLNAVPSQFSAIAAKHGYIG”, the “soluble fraction (log2)” value is -0.408.
Then “HMDIAYFSNAELNDAFIQFLNMRQEAGKQLNGYQIQILTEKLERVADTDEDRISAVKNAIAGGWSNFYPPK”, with -0.366.
As to “HMDIDASEVRGIISQYINEPDGRVSYILETIQKKYRYLPEEAIRIVAQELEVPLTQLFGVATFYAAFSL”, the “soluble fraction (log2)” value came to 0.0192.
As for “HMDIDLNTIKKITLDDIHAFLSYLTTTYHSKAATRARKASSIRVFFNYLSAKANLIEVNPAQNLETPKLD”, the “soluble fraction (log2)” value came to 0.0886.
Consider “HMDIEELLSRSTDRLSRQTEIRRLLADAQGRPNISSLARRFKVARRTVIRDLQELIRRGEVPPEIYPK”, for which the “soluble fraction (log2)” value was -0.0624.
Under “HMDIEFSDELRTFIDEWSKKEGGLVMMLHRIQNEYGFIPRTAAEKLSLISGIPLARIYGVITFYHFFKT” stands -1.01; under “HMDIGNKIKELRTEQKMTQSDLAERLGVTKSSISSYENGSRLPSYDILLKIARIFKVSTDILLG”, -0.637.
Under “HMDIGTRQRIIAAAMELFRQKGMDGMSMRELAERAGVNKGLLHYYFTTKEAIFREVFVHQVEM” stands -0.0208; under “HMDIIIEEGIDESLSTDDAILDLLGRASDAFSNAQKALLEGDLGSYQKLIEQAERLVKKATELLGENN”, -1.1.
Under “HMDIMNNILINRIKKILTEQNMSKADLSRLTGISNSSLSEYLNGKYEPKQDKIALIAKALHVSPAWLMGF” stands 0.166.
For “HMDINNTNFSRDVDNLLQNEEFIKWRIFRTKEWEDYWENFRKENPHMEDALQEAISRFNAVK”, the “soluble fraction (log2)” value is -0.736.
Turning to “HMDINVDILPLLKTMTDTLRKVIELDIPFLKDARVQRVNSLDELLLRADITTAEKFRKVFEAYQIEADFGK”, the “soluble fraction (log2)” value is -1.05.
For “HMDIPDIGHNVRIEVDGHNGKTTHEGIILHPAAPNHITIKLANGYNASYKLEEIINIEILGELGDDSKI”, the “soluble fraction (log2)” value was -0.863.
Turning to “HMDIPITFEQLPAKAQAFVKQYFKIEEIASVWRDDDIHDQDYKVYFNDGSEIEFYANGDWEEV”, the “soluble fraction (log2)” value was -0.468.
Under “HMDIPTSAEAVRAYLASGFIKGIGEATARMLVDKFGAETLEIIKTEPMKLTKISGIGPKKAKMIHESYLEK” stands -0.0191; under “HMDIRLMPGTVLTREYQGIEHRVTVAQDGQYEFEGRRYPSLSMIAREITGTRWSGPLFFGVK”, 0.141; under “HMDISEIEKRLLDFLEMPRSRKEIAEHLGIRTISYAIQTYITPLIDKKLVKMTIPESPRSHSQQYVRIN”, -0.125.
Consider “HMDISRMNLSQTERAVLSVLDSQPLHTEEIIASADLRAGAIHSALISLQLKGLIKQLPGNLYVK”, for which the “soluble fraction (log2)” value was -0.035.
With “HMDITKPKISFEPGEMVRVVDGPFNDFSGVVEEVNYEKSKVRVAVLIFGRSTPVELQFNQIEK”, the “soluble fraction (log2)” value was -0.523.
As for “HMDITTIIADVPGPKTQIKVDIKNTSLHIFGGMNFKKEIDIGDNKEIINIKYINGTLTVKLKT”, the “soluble fraction (log2)” value is -0.466.
As to “HMDIVGAINKIESMKQDRYLAMHPYSITHSADGYYRTYLPADDGKRKQIKKKSKSDLEKVVIDYWTKRS”, the “soluble fraction (log2)” value was at least 0.43.
For the sequence “HMDIVKVYTTARAGETLASVAKRTGVDVARLAQWNDIPLKRAKQKLKTGKALALWVQREHASAYSNAPP”, the “soluble fraction (log2)” value is 0.22.
Then “HMDIVQLSEKINVMKMEIPAQAIGKTVLEVNFRARFDLNIIAIENGGKLVEVIKPDYVFREGDILFLSGS”, with -1.31.
For “HMDIYENIDKELSKQGKSRRKLAIAAGIPPSTFQSMMERKRGLSVENLRKIAEVLNLKWYDLL”, the “soluble fraction (log2)” value is 0.135.
For the sequence “HMDIYKKFIIPATYFGSRLDHVLSELLPELSRSKIQNMIKQNLVMINGNHAAQKQKVVGDEEIIIKDI”, the “soluble fraction (log2)” value is -0.089.
“HMDKAALGQKLRQARLDKGYTQQSLSEKADIGEVYLSEIERGLKMPSMNLFIKLITALDISADYILR”: the “soluble fraction (log2)” value was -1.
Consider “HMDKDTFGEFENVKLTEEEYNKLVEKLGENNTKLMIEELSTGIASKGYKYKSHYATILSWSRRRVTKLQER”, for which the “soluble fraction (log2)” value was -1.18.
Regarding “HMDKEIKILKEKRLDDVQQAIRELSPQKRRVVEMKLYHNSTNQEVADKLAISVNTVKSLYTSALHDLRRIL”, the “soluble fraction (log2)” value was determined as 0.109.
Regarding “HMDKESQTMFRLLTGVSGVGPKVGLAILSVLSPDRVVLAISAGDHKAFTAASGVGPKLGQRIVLELKDKVG”, the “soluble fraction (log2)” value was -0.557.
Regarding “HMDKEVLYVTVNDKKVKLDGKNHIFIDIFNYIDFDIKKPNGSIVLKLNGKNAGYMDEIKDGDKIEIYWDK”, the “soluble fraction (log2)” value was -0.277.
In the case of “HMDKEVMEAVLRILYDDDFNPDQRDAILYFFVQELDQRTISEITGAKIGTVKKRIHDGLKKLRQKLAKEDL”, the “soluble fraction (log2)” value is -1.03.
For the sequence “HMDKGEQILQQALDKLPPKQRQVFEMRYFDEMPYREIATITETSEGALKASYHHAVKKIQQYISHL”, the “soluble fraction (log2)” value is -0.0313.
Consider “HMDKGQRGWINLVSVPTARVIIDGYDTGHETPLYGYEVERGKRKVTLISLDGTYERTYEIRIEPGTTTRVR”, for which the “soluble fraction (log2)” value is -0.947.
On to “HMDKIEVVEVDMSKPYEDMTVTELQNVILDKLASNGPVTNQMKKDVSENIYHDSLVNWAKSF”, for which the “soluble fraction (log2)” value was -0.541.
Then “HMDKIYVYTTRGQVIELPRGSTAIDFAYKIQTDIGNMIIAAIVNDKLVDANYVLHNKDRVKIVTS”, with -0.725.
Then “HMDKLNKELVSRMMDDAAWKELSKDFPWTEQLLEKYMNYVDWKEISRNYNVVWTKSLLEKFKHRLDWHE”, with -1.1.
Under “HMDKMIFFKNKENNDDNQLVKIGALLIHAAKIDEDFSQEEENIIKQTLINFGAGNKNINEIIEKAKKME” stands 0.33; under “HMDKMVAVPNVRGIEASEAEATLIAQGLFVEVEKSDSEDANVAYGEVYAQTPKAGNRVEEGTTITIKVRTE”, 0.229.
On to “HMDKNNLHSVLQDVPGIGPKRMKELMRAFGSVEGMKKAGLEELAAVKGMNHKAAEALIQFFR”, for which the “soluble fraction (log2)” value was 0.297.
In the case of “HMDKQGGWLTMAEAAEKLGVTHHVIRRLIKEKILPAEQVMRHAPHQIRIVDLESDAVAEALRHR”, the “soluble fraction (log2)” value turned out to be 0.155.
As for “HMDKVVGSAGDVTSRITANSGEVKIDGQIWQARSYDETIAIEAGEKIEVFDLDGITLIVYPI”, the “soluble fraction (log2)” value was -1.19.
Regarding “HMDLAENWKDDADITLAEYNAIRSRYKPGKLHRDTEFMIARDMLIRPETVLAIAHSRFSNVHTHPV”, the “soluble fraction (log2)” value is -0.771.
As to “HMDLDEELDFLSDADESATKLDLARAYIDMGDKDGARDILAEVLEEGRSEQKREAQALLDSI”, the “soluble fraction (log2)” value was -1.76.
Regarding “HMDLDPVEKLHLLSQLYVGQLKGSFVVKEKNQKTTIIGEVRELSHQTLSIRTNEGYRLIEVADILEIRLWE”, the “soluble fraction (log2)” value is -0.362.

These data come from the domain aggregation screens of Martell et al. (2025).
